pKi: −log10 of the molar value.
How the values were obtained:
Experiment in all cases: enzyme inhibition assay (chromogenic substrate, fit to Morrison's tight binding equation); MMP-2ACT (0.6 nM), MMP-9CAT (3 nM) or MMP-14CAT (1 nM) incubated with 0-25 nM N-TIMP2 variant for 1 h at 37 C in 50 mM HEPES, 10 mM CaCl2, 0.05% Brij-35, 1 mM DTNB, pH 7.5; then 100 uM chromogenic substrate, absorbance at 412 nm; three independent experiments
[1] = biological target: human MMP-14 catalytic domain (MMP-14CAT) (human) (UniProt P50281)
[2] = biological target: human MMP-9 catalytic domain (MMP-9CAT) (human) (UniProt P14780)
[3] = biological target: activated MMP-2 (MMP-2ACT) (human) (UniProt P08253)

| Substance | pKi [1] | pKi [2] | pKi [3] |
| --- | --- | --- | --- |
| N-TIMP2-A70DOPA (from UniProt P16035 27-153) (domain or fragment) | 7.97 | 9.34 | 9.11 |
| N-TIMP2-A70HqAla (from UniProt P16035 27-153) (domain or fragment) | 7.56 | 8.71 | 7.78 |
| N-TIMP2-L100DOPA (from UniProt P16035 27-153) (domain or fragment) | 7.85 | 9.07 | 9.00 |
| N-TIMP2-S2DOPA (from UniProt P16035 27-153) (domain or fragment) | 7.84 | 9.21 | 8.50 |
| N-TIMP2-S2HqAla (from UniProt P16035 27-153) (domain or fragment) | 7.01 | 7.15 | 7.01 |
| N-TIMP2-S69DOPA (from UniProt P16035 27-153) (domain or fragment) | 7.67 | 9.33 | 9.34 |
| N-TIMP2-S69HqAla (from UniProt P16035 27-153) (domain or fragment) | 7.94 | 9.35 | 9.22 |
| N-TIMP2-Y36HqAla (from UniProt P16035 27-153) (domain or fragment) | 8.33 | 9.27 | 9.38 |
